Results published in US20190177366A1 (published 2019).
Values joined by “and” are separate entries in the source; they are usually repeats but may differ in a detail not shown here. Equal entries are not always repeated. Bridge positions count the residues as written; N and C are the ends. Square brackets hold non-standard residues; d marks the D form. Primed or numbered codes have the meaning given here. * marks the point of attachment. Fmoc = O=C(OCC1c2ccccc2-c2ccccc21)*; Cit = NC(=O)NCCC[C@H](N)C(=O)O; Hyp′ = 3-hydroxyproline; Aoc = NCCCCCCCC(=O)O; Ahp = NCCCCCCC(=O)O; Ahx = NCCCCCC(=O)O; Ava = NCCCCC(=O)O

B1: Compound 90 (peptide)
peptide: Ac-WCLWNLKRIGSQCWF-OH
modifications: disulfide 2-13
SMILES: CC[C@H](C)[C@@H]1NC(=O)[C@H](CCCNC(=N)N)NC(=O)[C@H](CCCCN)NC(=O)[C@H](CC(C)C)NC(=O)[C@H](CC(N)=O)NC(=O)[C@H](Cc2c[nH]c3ccccc23)NC(=O)[C@H](CC(C)C)NC(=O)[C@@H](NC(=O)[C@H](Cc2c[nH]c3ccccc23)NC(C)=O)CSSC[C@@H](C(=O)N[C@@H](Cc2c[nH]c3ccccc23)C(=O)N[C@@H](Cc2ccccc2)C(=O)O)NC(=O)[C@H](CCC(N)=O)NC(=O)[C@H](CO)NC(=O)CNC1=O
B2: Compound 36 (peptide)
peptide: Ac-SGCFIPWNLQ[Cit]IGLPC-NH2
modifications: disulfide 3-16
SMILES: CC[C@H](C)[C@@H]1NC(=O)[C@H](CCCNC(N)=O)NC(=O)[C@H](CCC(N)=O)NC(=O)[C@H](CC(C)C)NC(=O)[C@H](CC(N)=O)NC(=O)[C@H](Cc2c[nH]c3ccccc23)NC(=O)[C@@H]2CCCN2C(=O)[C@H]([C@@H](C)CC)NC(=O)[C@H](Cc2ccccc2)NC(=O)[C@@H](NC(=O)CNC(=O)[C@H](CO)NC(C)=O)CSSC[C@@H](C(N)=O)NC(=O)[C@@H]2CCCN2C(=O)[C@H](CC(C)C)NC(=O)CNC1=O
B3: Compound 89 (peptide)
peptide: H-WCLWNLKRIGSQCWF-NH2
modifications: disulfide 2-13
SMILES: CC[C@H](C)[C@@H]1NC(=O)[C@H](CCCNC(=N)N)NC(=O)[C@H](CCCCN)NC(=O)[C@H](CC(C)C)NC(=O)[C@H](CC(N)=O)NC(=O)[C@H](Cc2c[nH]c3ccccc23)NC(=O)[C@H](CC(C)C)NC(=O)[C@@H](NC(=O)[C@@H](N)Cc2c[nH]c3ccccc23)CSSC[C@@H](C(=O)N[C@@H](Cc2c[nH]c3ccccc23)C(=O)N[C@@H](Cc2ccccc2)C(N)=O)NC(=O)[C@H](CCC(N)=O)NC(=O)[C@H](CO)NC(=O)CNC1=O
B4: Compound 87 (peptide)
peptide: Ac-GCLWNLKRIGSQCWF-NH2
modifications: disulfide 2-13
SMILES: CC[C@H](C)[C@@H]1NC(=O)[C@H](CCCNC(=N)N)NC(=O)[C@H](CCCCN)NC(=O)[C@H](CC(C)C)NC(=O)[C@H](CC(N)=O)NC(=O)[C@H](Cc2c[nH]c3ccccc23)NC(=O)[C@H](CC(C)C)NC(=O)[C@@H](NC(=O)CNC(C)=O)CSSC[C@@H](C(=O)N[C@@H](Cc2c[nH]c3ccccc23)C(=O)N[C@@H](Cc2ccccc2)C(N)=O)NC(=O)[C@H](CCC(N)=O)NC(=O)[C@H](CO)NC(=O)CNC1=O
B5: Compound 66 (peptide)
peptide: H-WCLWNLKRIGSQCWF-OH
modifications: disulfide 2-13
SMILES: CC[C@H](C)[C@@H]1NC(=O)[C@H](CCCNC(=N)N)NC(=O)[C@H](CCCCN)NC(=O)[C@H](CC(C)C)NC(=O)[C@H](CC(N)=O)NC(=O)[C@H](Cc2c[nH]c3ccccc23)NC(=O)[C@H](CC(C)C)NC(=O)[C@@H](NC(=O)[C@@H](N)Cc2c[nH]c3ccccc23)CSSC[C@@H](C(=O)N[C@@H](Cc2c[nH]c3ccccc23)C(=O)N[C@@H](Cc2ccccc2)C(=O)O)NC(=O)[C@H](CCC(N)=O)NC(=O)[C@H](CO)NC(=O)CNC1=O
B6: Compound 88 (peptide)
peptide: Ac-FCLWNLARIGSQCWF-NH2
modifications: disulfide 2-13
SMILES: CC[C@H](C)[C@@H]1NC(=O)[C@H](CCCNC(=N)N)NC(=O)[C@H](C)NC(=O)[C@H](CC(C)C)NC(=O)[C@H](CC(N)=O)NC(=O)[C@H](Cc2c[nH]c3ccccc23)NC(=O)[C@H](CC(C)C)NC(=O)[C@@H](NC(=O)[C@H](Cc2ccccc2)NC(C)=O)CSSC[C@@H](C(=O)N[C@@H](Cc2c[nH]c3ccccc23)C(=O)N[C@@H](Cc2ccccc2)C(N)=O)NC(=O)[C@H](CCC(N)=O)NC(=O)[C@H](CO)NC(=O)CNC1=O
B7: Compound 86 (peptide)
peptide: Ac-CRLPWNLQR[Aoc]C-NH2
modifications: disulfide 1-11
SMILES: CC(=O)N[C@H]1CSSC[C@@H](C(N)=O)NC(=O)CCCCCCCNC(=O)[C@H](CCCNC(=N)N)NC(=O)[C@H](CCC(N)=O)NC(=O)[C@H](CC(C)C)NC(=O)[C@H](CC(N)=O)NC(=O)[C@H](Cc2c[nH]c3ccccc23)NC(=O)[C@@H]2CCCN2C(=O)[C@H](CC(C)C)NC(=O)[C@H](CCCNC(=N)N)NC1=O
B8: Compound 98 (peptide)
peptide: Fmoc-GSGCWNLKRIGSQGC-NH2
modifications: disulfide 4-15
SMILES: CC[C@H](C)[C@@H]1NC(=O)[C@H](CCCNC(=N)N)NC(=O)[C@H](CCCCN)NC(=O)[C@H](CC(C)C)NC(=O)[C@H](CC(N)=O)NC(=O)[C@H](Cc2c[nH]c3ccccc23)NC(=O)[C@@H](NC(=O)CNC(=O)[C@H](CO)NC(=O)CNC(=O)OCC2c3ccccc3-c3ccccc32)CSSC[C@@H](C(N)=O)NC(=O)CNC(=O)[C@H](CCC(N)=O)NC(=O)[C@H](CO)NC(=O)CNC1=O
B9: Compound 115 (peptide)
peptide: Ac-CRLPWNLQRI[Ava]C-NH2
modifications: disulfide 1-12
SMILES: CC[C@H](C)[C@@H]1NC(=O)[C@H](CCCNC(=N)N)NC(=O)[C@H](CCC(N)=O)NC(=O)[C@H](CC(C)C)NC(=O)[C@H](CC(N)=O)NC(=O)[C@H](Cc2c[nH]c3ccccc23)NC(=O)[C@@H]2CCCN2C(=O)[C@H](CC(C)C)NC(=O)[C@H](CCCNC(=N)N)NC(=O)[C@@H](NC(C)=O)CSSC[C@@H](C(N)=O)NC(=O)CCCCNC1=O
B10: Compound 121 (peptide)
peptide: Ac-CRLPWNLQRI[Ahp]C-NH2
modifications: disulfide 1-12
SMILES: CC[C@H](C)[C@@H]1NC(=O)[C@H](CCCNC(=N)N)NC(=O)[C@H](CCC(N)=O)NC(=O)[C@H](CC(C)C)NC(=O)[C@H](CC(N)=O)NC(=O)[C@H](Cc2c[nH]c3ccccc23)NC(=O)[C@@H]2CCCN2C(=O)[C@H](CC(C)C)NC(=O)[C@H](CCCNC(=N)N)NC(=O)[C@@H](NC(C)=O)CSSC[C@@H](C(N)=O)NC(=O)CCCCCCNC1=O
B11: Compound 63 (peptide)
peptide: Ac-MCLWNLKRIGSQCEY-NH2
modifications: disulfide 2-13
SMILES: CC[C@H](C)[C@@H]1NC(=O)[C@H](CCCNC(=N)N)NC(=O)[C@H](CCCCN)NC(=O)[C@H](CC(C)C)NC(=O)[C@H](CC(N)=O)NC(=O)[C@H](Cc2c[nH]c3ccccc23)NC(=O)[C@H](CC(C)C)NC(=O)[C@@H](NC(=O)[C@H](CCSC)NC(C)=O)CSSC[C@@H](C(=O)N[C@@H](CCC(=O)O)C(=O)N[C@@H](Cc2ccc(O)cc2)C(N)=O)NC(=O)[C@H](CCC(N)=O)NC(=O)[C@H](CO)NC(=O)CNC1=O
B12: Compound 65 (peptide)
peptide: Ac-WCLWNLKRIGSQCEY-NH2
modifications: disulfide 2-13
SMILES: CC[C@H](C)[C@@H]1NC(=O)[C@H](CCCNC(=N)N)NC(=O)[C@H](CCCCN)NC(=O)[C@H](CC(C)C)NC(=O)[C@H](CC(N)=O)NC(=O)[C@H](Cc2c[nH]c3ccccc23)NC(=O)[C@H](CC(C)C)NC(=O)[C@@H](NC(=O)[C@H](Cc2c[nH]c3ccccc23)NC(C)=O)CSSC[C@@H](C(=O)N[C@@H](CCC(=O)O)C(=O)N[C@@H](Cc2ccc(O)cc2)C(N)=O)NC(=O)[C@H](CCC(N)=O)NC(=O)[C@H](CO)NC(=O)CNC1=O
B13: Compound 64 (peptide)
peptide: Ac-DCLWNLKRIGSQCEY-NH2
modifications: disulfide 2-13
SMILES: CC[C@H](C)[C@@H]1NC(=O)[C@H](CCCNC(=N)N)NC(=O)[C@H](CCCCN)NC(=O)[C@H](CC(C)C)NC(=O)[C@H](CC(N)=O)NC(=O)[C@H](Cc2c[nH]c3ccccc23)NC(=O)[C@H](CC(C)C)NC(=O)[C@@H](NC(=O)[C@H](CC(=O)O)NC(C)=O)CSSC[C@@H](C(=O)N[C@@H](CCC(=O)O)C(=O)N[C@@H](Cc2ccc(O)cc2)C(N)=O)NC(=O)[C@H](CCC(N)=O)NC(=O)[C@H](CO)NC(=O)CNC1=O
B14: Compound 95 (peptide)
peptide: Ac-FCLWNLKRIGSQCEY-NH2
modifications: disulfide 2-13
SMILES: CC[C@H](C)[C@@H]1NC(=O)[C@H](CCCNC(=N)N)NC(=O)[C@H](CCCCN)NC(=O)[C@H](CC(C)C)NC(=O)[C@H](CC(N)=O)NC(=O)[C@H](Cc2c[nH]c3ccccc23)NC(=O)[C@H](CC(C)C)NC(=O)[C@@H](NC(=O)[C@H](Cc2ccccc2)NC(C)=O)CSSC[C@@H](C(=O)N[C@@H](CCC(=O)O)C(=O)N[C@@H](Cc2ccc(O)cc2)C(N)=O)NC(=O)[C@H](CCC(N)=O)NC(=O)[C@H](CO)NC(=O)CNC1=O
B15: Compound 116 (peptide)
peptide: Ac-CRLPWNLQRI[Ahx]C-NH2
modifications: disulfide 1-12
SMILES: CC[C@H](C)[C@@H]1NC(=O)[C@H](CCCNC(=N)N)NC(=O)[C@H](CCC(N)=O)NC(=O)[C@H](CC(C)C)NC(=O)[C@H](CC(N)=O)NC(=O)[C@H](Cc2c[nH]c3ccccc23)NC(=O)[C@@H]2CCCN2C(=O)[C@H](CC(C)C)NC(=O)[C@H](CCCNC(=N)N)NC(=O)[C@@H](NC(C)=O)CSSC[C@@H](C(N)=O)NC(=O)CCCCCNC1=O

The binders below were run against T1, His-tagged, full-length PCSK9 (human, UniProt A8T644 31-152; Q8NBP7 153-692) (assay: TR-FRET competition; competitor EGF(A)-Fc on His-PCSK9).
T1 construct: Target protein of the PCSK9/EGF(A) TR-FRET assay (10 nM); also called His-PCSK9; proprotein convertase subtilisin/kexin type 9
T1 sequence (A8T644 31-152 limits assumed, chain 1 of 2): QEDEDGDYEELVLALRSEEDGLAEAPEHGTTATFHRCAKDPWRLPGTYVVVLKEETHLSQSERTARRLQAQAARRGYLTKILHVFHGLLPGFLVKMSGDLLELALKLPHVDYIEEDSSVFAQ
T1 sequence (A8T644 other isoform, or with tags, fused parts or gaps limits assumed, chain 2 of 2): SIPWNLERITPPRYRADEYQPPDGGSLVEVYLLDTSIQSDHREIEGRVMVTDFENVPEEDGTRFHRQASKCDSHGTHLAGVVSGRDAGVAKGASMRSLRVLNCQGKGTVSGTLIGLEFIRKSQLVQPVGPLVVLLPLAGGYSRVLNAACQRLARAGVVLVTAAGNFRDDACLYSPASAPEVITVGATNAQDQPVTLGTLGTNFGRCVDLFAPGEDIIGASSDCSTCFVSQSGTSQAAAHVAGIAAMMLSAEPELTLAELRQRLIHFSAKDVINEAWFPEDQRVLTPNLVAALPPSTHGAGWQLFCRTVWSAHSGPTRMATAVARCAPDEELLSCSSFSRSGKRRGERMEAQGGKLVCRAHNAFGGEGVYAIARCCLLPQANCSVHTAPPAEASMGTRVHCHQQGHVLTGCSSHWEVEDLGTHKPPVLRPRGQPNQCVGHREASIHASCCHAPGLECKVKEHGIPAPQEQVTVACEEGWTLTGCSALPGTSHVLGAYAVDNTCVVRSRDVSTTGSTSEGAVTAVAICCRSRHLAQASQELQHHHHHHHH

For B1, which IC50 is on record?
The IC50 was 29.2 µM.

How did the IC50 turn out when B2 was run?
The IC50 was greater than 50 µM.

With Ac-CWNLKRIGSQGCW-NH2 (disulfide 1-12 (inferred)) [Compound 39] as the binder, how does the IC50 read?
The IC50 was greater than 50 µM.

For B3, which IC50 is on record?
The IC50 was 6.9 µM.

For B4, which IC50 is on record?
Its IC50 is greater than 50 µM.

For Ac-GSGCWNLKRIGSQGCW-NH2 (disulfide 4-15 (inferred)) [Compound 40], which IC50 is on record?
Its IC50 is 5.96 µM.

Which IC50 does the source give for B5 here?
The IC50 was 31.3 µM.

Which IC50 does the source give for B6 here?
The IC50 was 17.9 µM.

B7 was tested. Which IC50 did it give?
The IC50 was greater than 50 µM.

Ac-SGCRL[Hyp′]WNLQRIGLPC-NH2 (disulfide 3-16) [Compound 37] was tested. Which IC50 did it give?
Its IC50 is greater than 50 µM.

Which IC50 does the source give for B8 here?
The IC50 was 37.6 µM.

Which IC50 does the source give for B9 here?
Its IC50 is greater than 50 µM.

Ac-CWNLKRIGSQGC-NH2 (disulfide 1-12 (inferred)) [Compound 21] was tested. Which IC50 did it give?
Its IC50 is greater than 50 µM.

Which IC50 does the source give for B10 here?
The IC50 was greater than 50 µM.

With Ac-GSGCWNLKRIGSQGC-NH2 (disulfide 4-15 (inferred)) [Compound 22] as the binder, how does the IC50 read?
The IC50 was 42 µM and > 50 µM.

B11 was tested. Which IC50 did it give?
Its IC50 is 14.6 µM.

How did the IC50 turn out when B12 was run?
Its IC50 is greater than 50 µM.

B13 was tested. Which IC50 did it give?
Its IC50 is greater than 50 µM.

B14 was tested. Which IC50 did it give?
The IC50 was greater than 50 µM.

Which IC50 does the source give for B15 here?
Its IC50 is greater than 50 µM.
